“Also recorded” adds a separate entry of the source. Where no end group is shown, it is not given here. fluorescein = amino-terminal fluorescein label
Assays:
[1] = target: Pol1 CIP-box (Saccharomyces cerevisiae) (UniProt P13382); conditions: cited from earlier work
[2] = target: Sld5 CIP-box (Saccharomyces cerevisiae) (UniProt Q03406); conditions: cited from earlier work
[3] = system: Ctf4-I901E (471-927); assay: Fluorescence anisotropy, Sld5 peptide binding to Ctf4-I901E; design: species or system budding yeast; conditions: Figure S2B; 40 nM fluorescein-labeled Sld5 peptide, pH 7.2, 25°C
Experimental: (§1) The lowest concentration of peptide at which the binding studies could be performed was determined via peptide calibration curves. Fluorescence anisotropy measurements were recorded in a PHERAstar Plus multi-detection plate reader (BMG Labtech) equipped with fluorescence polarization optic module (λex = 485 nm; λem = 520 nm) at 25°C. Each data point is the mean of 200 flashes/well. The voltage gain was set by adjusting the target mP values of fluorescein-labeled peptides relative to that of fluorescein (35 mP). Serial dilutions of Ctf4CTD were made in 20 mM HEPES (pH 7.2), 140 mM KCl, and 5% (w/v) glycerol in the presence of 40 nM (Sld5 and Tof2) or 50 nM (Dna2) fluorescein-labeled peptide. For Dna2 peptide, each data point is the mean of three independent experiments and curve fitting to the experimental data was performed in pro Fit 6.2 (QuantumSoft) using a Levenberg-Marquardt fitting algorithm in combination with a Gaussian error distribution analysis.

[4] = system: Ctf4-4E (471-927); assay: Fluorescence anisotropy, Sld5 peptide binding to Ctf4-4E; design: species or system budding yeast; conditions: Figure S2B; 40 nM fluorescein-labeled Sld5 peptide, pH 7.2, 25°C
Experimental: as §1

[5] = target: T1, Ctf4 471–927 (budding yeast, UniProt Q01454 471-927); assay: pull-down; GST fusion on Glutathione Sepharose beads; 500 μl purified Ctf4CTD at 2 mg/ml, 1 hr at 4°C; 20 mM HEPES pH 7.2, 150 mM NaCl, 5% glycerol, 0.1% Igepal CA-630, 1 mM TCEP, 1% BSA; SDS-PAGE; conditions: both partners purified
T1 construct: also called Ctf4CTD; source: purified Ctf4CTD protein
T1 sequence (looked up): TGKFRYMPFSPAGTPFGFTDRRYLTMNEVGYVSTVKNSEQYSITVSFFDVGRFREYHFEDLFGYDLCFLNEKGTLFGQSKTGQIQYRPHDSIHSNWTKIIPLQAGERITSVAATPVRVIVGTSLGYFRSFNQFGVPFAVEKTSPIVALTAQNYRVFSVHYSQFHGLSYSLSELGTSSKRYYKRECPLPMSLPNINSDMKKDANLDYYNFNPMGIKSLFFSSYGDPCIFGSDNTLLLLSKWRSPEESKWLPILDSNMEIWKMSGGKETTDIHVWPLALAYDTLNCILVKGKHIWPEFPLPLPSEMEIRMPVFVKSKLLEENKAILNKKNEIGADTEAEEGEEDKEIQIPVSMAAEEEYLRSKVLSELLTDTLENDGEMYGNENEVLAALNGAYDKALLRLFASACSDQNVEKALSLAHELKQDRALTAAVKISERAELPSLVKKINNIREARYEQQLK

[6] = target: T1, Ctf4 471–927; assay: native MS; 5-fold or 10-fold molar excess of peptide mixed with 100 μM Ctf4CTD in 500 mM ammonium acetate, at least 30 min; conditions: both partners purified
[7] = target: T1, Ctf4 471–927; assay: fluorescence polarisation; fluorescence anisotropy; serial dilutions of Ctf4CTD with 40 nM (Sld5, Tof2) or 50 nM (Dna2) fluorescein-labeled peptide; 20 mM HEPES pH 7.2, 140 mM KCl, 5% glycerol, 25°C; conditions: both partners purified
[8] = system: Pol1; assay: Yeast two-hybrid with Pol1; format: binding, budding yeast
Experimental: (§2) Yeast growth, two-hybrid analysis, and immunoprecipitation experiments were performed as described in detail previously ([Maculins et al., 2015], [Maric et al., 2014]). A two-hybrid screen against amino acids 461–927 of Ctf4 was performed by the company Hybrigenics.

[9] = system: Dna2; assay: Yeast two-hybrid with Dna2; format: binding, budding yeast
Experimental: as §2

[10] = system: Tof2; assay: Yeast two-hybrid with Tof2; format: binding, budding yeast
Experimental: as §2

[11] = system: Dpb2; assay: Yeast two-hybrid with Dpb2; format: binding, budding yeast
Experimental: as §2

[12] = system: CMG helicase; assay: Co-purification with CMG helicase from yeast cell extracts; format: cell-based, budding yeast; conditions: extracts of S phase yeast cells; immunoprecipitation, immunoblotting
Experimental: (D) Cultures of ctf4-4E MCM4-9MYC (YFV13) and MCM4-9MYC control cells (YSS75) were synchronized in G1-phase at 30°C and then released into S phase for 20 min. The Mcm4-9MYC was isolated from cell extracts by immunoprecipitation and the associated proteins monitored by immunoblotting. (E) ctf4-4E is synthetic lethal with mrc1Δ. The cells were processed as in Figure 1A, and the photos in the lower images were taken after 20 hr growth at 30°C (the scale bars represent 50 μm). See also Figure S2. TEXT PRINTED IN THE PICTURE: (C) Ctf4-4E (471-927): 162 kDa
as §2

[13] = SEC-MALS; format: physicochemical; conditions: residues 471–927, 2 mg/ml, 20 mM HEPES pH 7.2, 160 mM NaCl
Experimental: 100 μl of Ctf4CTD 4E mutant protein (with mutated binding site for type I CIP-boxes) at a concentration of 2 mg/ml was loaded onto a Superdex S200 HR 10/300 gel-filtration column (GE Healthcare) in 20 mM HEPES pH 7.2, 160 mM NaCl at a flow rate of 0.5 ml/min. The column was controlled using an Äkta Purifier System (GE Healthcare) and was linked to a DAWN 8^+ 8-angle light scattering detector (Wyatt Technology) with a fused silica sample cell using a laser wavelength of 664 nm. The change in the refractive index was detected using an Optilab T-rEX refractometer with extended range (Wyatt Technology) using a wavelength of 658 nm. Data collection and analysis was carried out using the ASTRA6 software package (Wyatt Technology). Molecular weight determination across the sample peak was carried out using a Zimm-plot derived global fitting algorithm with a fit degree of 1 and a dn/dc value of 0.1850 ml/g.

Ctf4 (from UniProt Q01454)
Kd [1]: 25 µM | Kd [2]: 5 µM

Sld5 peptide (1-19): isolated peptide containing the Sld5 CIP-box, residues 1-19 (MDINIDDILAELDKETTAV; also: fluorescein-labeled, end not given here; UniProt Q03406 1-19, looked up, fragment)
binding to Ctf4-I901E (in words) [3]: blocked binding; also recorded: neither Ctf4-4E nor Ctf4-I901E could bind | binding to Ctf4-4E (in words) [4]: blocked binding; also recorded: neither Ctf4-4E nor Ctf4-I901E could bind

B1: GST-Dna2 CIP-box 207–223 (domain or fragment, yeast)
chain: SLRNIDDILDDIEGDLT
notes: Dna2, budding yeast, residues 207-223 (CIP-box)
binding result [5]: binds

B2: Tof2 peptide 497–517 (peptide)
peptide: fluorescein-SHAKDVKIQETIRKLNRFKPT
notes: Tof2, yeast, amino acids 497-517; also called Tof2 CIP-box peptide; peptide containing the Tof2 CIP-box; source: synthetic peptide (Cambridge Peptides)
binding result [6]: binds

B3: Dna2 peptide 207–223 (peptide)
peptide: fluorescein-SLRNIDDILDDIEGDLT
notes: Dna2, yeast, residues 207-223; also called Dna2 CIP-box peptide; isolated peptide containing the Dna2 CIP-box; source: synthetic peptide (Cambridge Peptides)
Kd [7]: 230 µM

B4: Ctf4-4E: Ctf4 L867E-A871E-A897E-I901E, mutated binding site for type I CIP-boxes (protein, UniProt Q01454 2-927, looked up, variant L867E A871E A897E I901E)
DNA polymerase alpha-binding …: VSVIDKLVFDFGGKTLVSLAPDNNTLCVANKNGLTKILKTNNPEEEPETLDSSKLVSSIKCYSNSHFLMTTMQGDALRYNIDSSQEELLARFALPLRDCCVIHSGKMAVFGGDDLELILLELDDETHKKHAIKIDEQVSQISYNSQMNILAVSMINGKVQIFSLTSTIPNKVHELNDYIVANSYDDTHRDKILSNMMDDIDKDNDNDLSETADPDENNVADPEFCAANRICTRVAWHPKGLHFALPCADDTVKIFSIKGYSLQKTLSTNLSSTKAHFIDLQFDPLRGTYIAAVDLNNKLTVWNWETSEIHYTREFKRKITNIAWKIQADSKTLDLVLGTWSGSIAIVQNLAESVVSNIPDQSVAESSTKHGLFVDSESDLENLEGNDDINKSDKLFSDITQEANAEDVFTQTHDGPSGLSEKRKYNFEDEEDFIDDDDGAGYISGKKPHNEHSYSRVHKTHSFPISLANTGKFRYMPFSPAGTPFGFTDRRYLTMNEVGYVSTVKNSEQYSITVSFFDVGRFREYHFEDLFGYDLCFLNEKGTLFGQSKTGQIQYRPHDSIHSNWTKIIPLQAGERITSVAATPVRVIVGTSLGYFRSFNQFGVPFAVEKTSPIVALTAQNYRVFSVHYSQFHGLSYSLSELGTSSKRYYKRECPLPMSLPNINSDMKKDANLDYYNFNPMGIKSLFFSSYGDPCIFGSDNTLLLLSKWRSPEESKWLPILDSNMEIWKMSGGKETTDIHVWPLALAYDTLNCILVKGKHIWPEFPLPLPSEMEIRMPVFVKSKLLEENKAILNKKNEIGADTEAEEGEEDKEIQIPVSMAAEEEYLRSKVLSELLTDTLENDGEMYGNENEVLAALNGAYDKALERLFESACSDQNVEKALSLAHELKQDRALTEAVKESERAELPSLVKKINNIREARYEQQLK
interaction with Pol1 (in words) [8]: does not interact with the amino terminus of Pol1; also recorded: unable to interact | interaction with Dna2 (in words) [9]: unable to interact | interaction with Tof2 (in words) [10]: still able to interact | interaction with Dpb2 (in words) [11]: still able to interact | association with CMG helicase (in words) [12]: unable to interact with the CMG helicase | oligomeric state (in words) ([13]; SEC-MALS): able to form a trimer in vitro; also recorded: trimeric | molecular mass by SEC-MALS ([13]; printed in Figure 2C): 162 kDa

B5: Ctf4-3E: Ctf4 with M731, I740, and L756 mutated to glutamate; disrupts binding site for type II CIP-box proteins (protein)
chain: MVSVIDKLVFDFGGKTLVSLAPDNNTLCVANKNGLTKILKTNNPEEEPETLDSSKLVSSIKCYSNSHFLMTTMQGDALRYNIDSSQEELLARFALPLRDCCVIHSGKMAVFGGDDLELILLELDDETHKKHAIKIDEQVSQISYNSQMNILAVSMINGKVQIFSLTSTIPNKVHELNDYIVANSYDDTHRDKILSNMMDDIDKDNDNDLSETADPDENNVADPEFCAANRICTRVAWHPKGLHFALPCADDTVKIFSIKGYSLQKTLSTNLSSTKAHFIDLQFDPLRGTYIAAVDLNNKLTVWNWETSEIHYTREFKRKITNIAWKIQADSKTLDLVLGTWSGSIAIVQNLAESVVSNIPDQSVAESSTKHGLFVDSESDLENLEGNDDINKSDKLFSDITQEANAEDVFTQTHDGPSGLSEKRKYNFEDEEDFIDDDDGAGYISGKKPHNEHSYSRVHKTHSFPISLANTGKFRYMPFSPAGTPFGFTDRRYLTMNEVGYVSTVKNSEQYSITVSFFDVGRFREYHFEDLFGYDLCFLNEKGTLFGQSKTGQIQYRPHDSIHSNWTKIIPLQAGERITSVAATPVRVIVGTSLGYFRSFNQFGVPFAVEKTSPIVALTAQNYRVFSVHYSQFHGLSYSLSELGTSSKRYYKRECPLPMSLPNINSDMKKDANLDYYNFNPMGIKSLFFSSYGDPCIFGSDNTLLLLSKWRSPEESKWLPILDSNMEIWKESGGKETTDEHVWPLALAYDTLNCIEVKGKHIWPEFPLPLPSEMEIRMPVFVKSKLLEENKAILNKKNEIGADTEAEEGEEDKEIQIPVSMAAEEEYLRSKVLSELLTDTLENDGEMYGNENEVLAALNGAYDKALLRLFASACSDQNVEKALSLAHELKQDRALTAAVKISERAELPSLVKKINNIREARYEQQLK
interaction with Pol1 (in words) [8]: without affecting interaction | interaction with Dna2 (in words) [9]: without affecting interaction | interaction with Tof2 (in words) [10]: abolished interaction | interaction with Dpb2 (in words) [11]: unable to interact | association with CMG helicase (in words) [12]: did not prevent association of Ctf4 with the CMG helicase
